Results as given in patent US20180119166A1 (UNIVERSITY INDUSTRY FOUNDATION YONSEI UNIVERSITY, published 2018).

B1: 6x-histidine-fused LOS4 (LOS4-His) (enzyme)
chain: MADTVEKVPTVVESSSSSTVEASNSAEKTEPTTEKKKWGDVEDDDDEEEAVSELNSLSIKEEEKPDSILEEPEDSNIKAVTSGDTPYTSASRFEDLNLSPELMKGLYVEMKFEKPSKIQAISLPMIMTPPHKHLIAQAHNGSGKTTCFVLGMLSRVDPTLREPQALCICPTRELANQNMEVLQKMGKFTGITAELAVPDSTRGAPAATRGAPVSAHVVIGTPGTLKKWMAFKRLGLNHLKILVFDEADHMLATDGFRDDSLKIMKDIGRVNPNFQVLLFSATFNETVKDFVARTVKDPNQLFVKREDLALDSVKQYKVVCPKEQNKIEVIKDQIMELGDIGQTIIFVKTKASAQKVHKALAEMGYDVTSVHGNLTESDRDKIVKEFKECLTQVLIATDVIARGFDQQRVNLVVNYNLPTKYETGEPDYEVYLHRVGRAGRFGRKGAVFNLLLDDGWDKEVMEKIEKYFEANVKEIKSWNSEEEYKSALKEAGLLDEHHHHHH
notes: Recombinant protein from E. coli Rosetta (DE3); also called LOS-His

Columns and labels:
[1] = molecular target: maltose-binding protein (MBP) (UniProt P0AEX9 27-392 = MBP); experiment: in vitro pull-down on nickel resin, Coomassie blue staining
Description: Purified recombinant proteins are stained with Coomassie blue (left). A mixture of the proteins is bound to a nickel resin or amylose resin, and the resin-bound proteins are eluted and then stained with Coomassie blue (right);
After extensive washing of the resins, the bound proteins were eluted with 2×SDS sample buffer, and the eluted proteins were visualized by Coomassie blue staining.

[2] = molecular target: B1; experiment: cell-based or functional assay
[3] = molecular target: T1, LOS4 (BiFC fusion protein, FIG. 8B) (Arabidopsis, UniProt Q93ZG7 1-496); experiment: BiFC (FIG. 8), told again in the discussion
T1 construct: not shown: YFP fragment for BiFC
T1 sequence (looked up): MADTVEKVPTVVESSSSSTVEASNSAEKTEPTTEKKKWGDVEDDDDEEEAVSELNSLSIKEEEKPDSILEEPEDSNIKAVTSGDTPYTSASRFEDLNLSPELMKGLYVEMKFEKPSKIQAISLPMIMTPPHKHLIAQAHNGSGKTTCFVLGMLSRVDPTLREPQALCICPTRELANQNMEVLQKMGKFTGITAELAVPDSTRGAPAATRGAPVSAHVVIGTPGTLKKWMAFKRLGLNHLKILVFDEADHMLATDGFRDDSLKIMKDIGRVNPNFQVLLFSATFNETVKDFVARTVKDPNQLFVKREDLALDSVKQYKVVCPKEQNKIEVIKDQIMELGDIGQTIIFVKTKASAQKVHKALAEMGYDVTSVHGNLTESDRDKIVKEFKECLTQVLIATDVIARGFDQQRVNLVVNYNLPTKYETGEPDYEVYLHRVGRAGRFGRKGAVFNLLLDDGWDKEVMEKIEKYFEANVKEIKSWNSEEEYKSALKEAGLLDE

YFP^N-Gle1 = molecular target: T2, YFP^N-Gle1 (Arabidopsis, UniProt Q0WPZ7 1-611); experiment: BiFC in N. benthamiana leaves (agroinfiltration), confocal microscopy
T2 construct: BiFC construct expressed in N. benthamiana leaves by agroinfiltration; also called YFP^N-fusion protein of Arabidopsis Gle1; not shown: N-terminal fragment of YFP (YFP^N) for BiFC
T2 sequence: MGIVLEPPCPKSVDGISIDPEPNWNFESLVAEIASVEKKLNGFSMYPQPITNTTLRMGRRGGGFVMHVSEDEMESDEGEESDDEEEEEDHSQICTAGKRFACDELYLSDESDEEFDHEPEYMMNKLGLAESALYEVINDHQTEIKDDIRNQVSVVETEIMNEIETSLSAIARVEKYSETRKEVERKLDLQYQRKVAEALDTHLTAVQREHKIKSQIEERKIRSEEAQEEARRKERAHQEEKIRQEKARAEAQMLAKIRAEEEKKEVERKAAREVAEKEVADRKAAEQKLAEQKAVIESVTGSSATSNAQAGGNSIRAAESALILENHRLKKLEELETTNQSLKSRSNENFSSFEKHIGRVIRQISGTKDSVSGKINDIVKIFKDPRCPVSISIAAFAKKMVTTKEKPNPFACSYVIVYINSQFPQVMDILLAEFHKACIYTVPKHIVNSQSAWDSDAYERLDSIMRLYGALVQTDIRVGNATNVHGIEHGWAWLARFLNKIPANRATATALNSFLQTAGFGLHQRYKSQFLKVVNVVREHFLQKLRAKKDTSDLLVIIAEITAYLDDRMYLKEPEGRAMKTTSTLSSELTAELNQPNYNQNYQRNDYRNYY

B1
binding result [1]: no binding

B2: maltose-binding protein (MBP)-fused Gle1 (MBP-Gle1) (other, not shown: large carriers)
chain: MGIVLEPPCPKSVDGISIDPEPNWNFESLVAEIASVEKKLNGFSMYPQPITNTTLRMGRRGGGFVMHVSEDEMESDEGEESDDEEEEEDHSQICTAGKRFACDELYLSDESDEEFDHEPEYMMNKLGLAESALYEVINDHQTEIKDDIRNQVSVVETEIMNEIETSLSAIARVEKYSETRKEVERKLDLQYQRKVAEALDTHLTAVQREHKIKSQIEERKIRSEEAQEEARRKERAHQEEKIRQEKARAEAQMLAKIRAEEEKKEVERKAAREVAEKEVADRKAAEQKLAEQKAVIESVTGSSATSNAQAGGNSIRAAESALILENHRLKKLEELETTNQSLKSRSNENFSSFEKHIGRVIRQISGTKDSVSGKINDIVKIFKDPRCPVSISIAAFAKKMVTTKEKPNPFACSYVIVYINSQFPQVMDILLAEFHKACIYTVPKHIVNSQSAWDSDAYERLDSIMRLYGALVQTDIRVGNATNVHGIEHGWAWLARFLNKIPANRATATALNSFLQTAGFGLHQRYKSQFLKVVNVVREHFLQKLRAKKDTSDLLVIIAEITAYLDDRMYLKEPEGRAMKTTSTLSSELTAELNQPNYNQNYQRNDYRNYY
LOS4 ATPase activity with RNA and MBP-Gle1 (2 µM), LOS4-His 1 µM [2]: ~3 fold
LOS4 ATPase activity with RNA, MBP-Gle1 (2 µM) and InsP6 (10 µM) [2]: > 4 fold

B3: IPK1 (BiFC fusion protein, FIG. 8B) (enzyme, Arabidopsis, UniProt Q93YN9 1-451, looked up)
chain: MEMILEEKDASDWIYRGEGGANLVLAYAGSSPLFVGKVIRIQKARRNDKAIKNANGVVSVLTSDEQHLWRENNELISSPNKEVLEQRYVKNVIIPLLGPKHVDAGVRVSVSKEFLECVDKKVTKQRPLWRVNAANVDTSHDSALILNDHSLFSQGISSGGDCISVEIKPKCGFLPTSRFIGKENMLKTSVSRFKMHQLLKLEYNEISEESEYDPLDLFSGSKESVLEAIKALYSTPQNNFRVFLNGSLILGGSGESTGRTSPEIGYAFEDALKGFIQSEDGHRTECFLQLVSDAVYGSGVLDRLLEIQKLDKLDIEGAIHSYYDLINQPCPICKEGKPLEAELSLHALPLDESLKIVKEYLIAATAKDCSIMISFQSRNAWDSEPSGDYVSLKPTNQTFDYKVHFIDLSLKPLKRMESYYKLDKKIISFYNRKQKAENTAEQIGNSKPSHS
notes: Expressed in N. benthamiana leaves by agroinfiltration; also called inositol 1,3,4,5,6-pentakisphosphate 2-kinase; not shown: YFP fragment for BiFC
binding result [3]: binds

B4: LOS4-YFP^C (other, Arabidopsis, UniProt Q93ZG7 1-496, looked up)
chain: MADTVEKVPTVVESSSSSTVEASNSAEKTEPTTEKKKWGDVEDDDDEEEAVSELNSLSIKEEEKPDSILEEPEDSNIKAVTSGDTPYTSASRFEDLNLSPELMKGLYVEMKFEKPSKIQAISLPMIMTPPHKHLIAQAHNGSGKTTCFVLGMLSRVDPTLREPQALCICPTRELANQNMEVLQKMGKFTGITAELAVPDSTRGAPAATRGAPVSAHVVIGTPGTLKKWMAFKRLGLNHLKILVFDEADHMLATDGFRDDSLKIMKDIGRVNPNFQVLLFSATFNETVKDFVARTVKDPNQLFVKREDLALDSVKQYKVVCPKEQNKIEVIKDQIMELGDIGQTIIFVKTKASAQKVHKALAEMGYDVTSVHGNLTESDRDKIVKEFKECLTQVLIATDVIARGFDQQRVNLVVNYNLPTKYETGEPDYEVYLHRVGRAGRFGRKGAVFNLLLDDGWDKEVMEKIEKYFEANVKEIKSWNSEEEYKSALKEAGLLDE
notes: BiFC construct expressed in N. benthamiana leaves by agroinfiltration; also called YFP^C-fusion protein of LOS4; not shown: C-terminal fragment of YFP (YFP^C) for BiFC
binding result (YFP^N-Gle1): binds
